# Assay results reported in patent US12077795B2, “Method for biocatalytic protein-oligonucleotide conjugation” (The Research Foundation for The State University of New York, priority 2016, dated 2024).
# B1: HST-I: ~26 kDa autocatalytic C-terminal segment of the Hedgehog precursor from Drosophila melanogaster, SEQ ID NO.: 001 (protein)
# chain: GCFTPESTALLESGVRKPLGELSIGDRVLSMTANGQAVYSEVILFMDRNLEQMQNFVQLHTDGGAVLTVTPAHLVSVWQPESQKLTFVFADRIEEKNQVLVRDVETGELRPQRVVKVGSVRSKGVVAPLTREGTIVVNSVAASCYAVINSQSLAHWGLAPMRLLSTLEAWLPAKEQLHSSPKVVSSAQQQNGIHWYANALYKVKDYVLPQSWRHD
# modifications: Drosophila melanogaster
# Tested on: heterologous proteins fused to HST-I
# Test: HST-I catalysed protein conjugation (optical assay to monitor HST-I)
# Format: biochemical, Drosophila melanogaster
# Method: Using an optical assay developed to monitor HST-I, heterologous proteins can be covalently modified at their C-terminus by cholesterol with a t1/2 of 10-20 min at pH 7.1, 25 degrees Celsius.
molecule,measurement,setting,value
B1,time for protein conjugation,in the absence of accessory proteins,< 60 min
same,half time of conjugation,"physiological buffer, room temperature",≤ 1 h
